Data as given in US12172986B2, “Splicing modulator antibody-drug conjugates and methods of use” (EISAI R&D MANAGEMENT CO., LTD., priority 2018, dated 2024).

B1: AB205-ADL1-D14 (conjugate)
heavy: QVQLQQSGSELMMPGASVKISCKATGYTFSNYWIQRPGHGLEWIGEILPGTGRTIYNEKFKGKATFTADISSNTVQMQLSSLTSEDSAVYYCARRDYYGNFYYAMDYWGQGTSVTVSSAKTTPPSVYPLAPGSAAQTNSMVTLGCLVKGYFPEPVTVTWNSGSLSSGVHTFPAVLQSDLYTLSSSVTVPSSTWPSETVTCNVAHPASSTKVDKKIVPRDCGCKPCICTVPEVSSVFIFPPKPKDVLTITLTPKVTCVVVDISKDDPEVQFSWFVDDVEVHTAQTQPREEQFNSTFRSVSELPIMHQDWLNGKEFKCRVNSAAFPAPIEKTISKTKGRPKAPQVYTIPPPKEQMAKDKVSLTCMITDFFPEDITVEWQWNGQPAENYKNTQPIMDTDGSYFVYSKLNVQKSNWEAGNTFTCSVLHEGLHNHHTEKSLSHSPG
light: DIQMTQSTSSLSASLGDRVTISCSASQGINNYLNWYQQKPDGTVELLIYYTSTLQSGVPSRFSGSGSGTDYSLTISNLEPEDIGTYYCQQYSKLPRTFGGGTKLEIKRADAAPTVSIFPPSSEQLTSGGASVVCFLNNFYPKDINVKWKIDGSERQNGVLNSWTDQDSKDSTYSMSSTLTLTKDEYERHNSYTCEATHKTSTSPIVKSFNRNEC
B2: AB205-ADL1-D4 (conjugate)
heavy: QVQLQQSGSELMMPGASVKISCKATGYTFSNYWIQRPGHGLEWIGEILPGTGRTIYNEKFKGKATFTADISSNTVQMQLSSLTSEDSAVYYCARRDYYGNFYYAMDYWGQGTSVTVSSAKTTPPSVYPLAPGSAAQTNSMVTLGCLVKGYFPEPVTVTWNSGSLSSGVHTFPAVLQSDLYTLSSSVTVPSSTWPSETVTCNVAHPASSTKVDKKIVPRDCGCKPCICTVPEVSSVFIFPPKPKDVLTITLTPKVTCVVVDISKDDPEVQFSWFVDDVEVHTAQTQPREEQFNSTFRSVSELPIMHQDWLNGKEFKCRVNSAAFPAPIEKTISKTKGRPKAPQVYTIPPPKEQMAKDKVSLTCMITDFFPEDITVEWQWNGQPAENYKNTQPIMDTDGSYFVYSKLNVQKSNWEAGNTFTCSVLHEGLHNHHTEKSLSHSPG
light: DIQMTQSTSSLSASLGDRVTISCSASQGINNYLNWYQQKPDGTVELLIYYTSTLQSGVPSRFSGSGSGTDYSLTISNLEPEDIGTYYCQQYSKLPRTFGGGTKLEIKRADAAPTVSIFPPSSEQLTSGGASVVCFLNNFYPKDINVKWKIDGSERQNGVLNSWTDQDSKDSTYSMSSTLTLTKDEYERHNSYTCEATHKTSTSPIVKSFNRNEC
B3: AB205-ADL5-D25 (conjugate)
heavy: QVQLQQSGSELMMPGASVKISCKATGYTFSNYWIQRPGHGLEWIGEILPGTGRTIYNEKFKGKATFTADISSNTVQMQLSSLTSEDSAVYYCARRDYYGNFYYAMDYWGQGTSVTVSSAKTTPPSVYPLAPGSAAQTNSMVTLGCLVKGYFPEPVTVTWNSGSLSSGVHTFPAVLQSDLYTLSSSVTVPSSTWPSETVTCNVAHPASSTKVDKKIVPRDCGCKPCICTVPEVSSVFIFPPKPKDVLTITLTPKVTCVVVDISKDDPEVQFSWFVDDVEVHTAQTQPREEQFNSTFRSVSELPIMHQDWLNGKEFKCRVNSAAFPAPIEKTISKTKGRPKAPQVYTIPPPKEQMAKDKVSLTCMITDFFPEDITVEWQWNGQPAENYKNTQPIMDTDGSYFVYSKLNVQKSNWEAGNTFTCSVLHEGLHNHHTEKSLSHSPG
light: DIQMTQSTSSLSASLGDRVTISCSASQGINNYLNWYQQKPDGTVELLIYYTSTLQSGVPSRFSGSGSGTDYSLTISNLEPEDIGTYYCQQYSKLPRTFGGGTKLEIKRADAAPTVSIFPPSSEQLTSGGASVVCFLNNFYPKDINVKWKIDGSERQNGVLNSWTDQDSKDSTYSMSSTLTLTKDEYERHNSYTCEATHKTSTSPIVKSFNRNEC
B4: AB205-ADL1-D1 (conjugate)
heavy: QVQLQQSGSELMMPGASVKISCKATGYTFSNYWIQRPGHGLEWIGEILPGTGRTIYNEKFKGKATFTADISSNTVQMQLSSLTSEDSAVYYCARRDYYGNFYYAMDYWGQGTSVTVSSAKTTPPSVYPLAPGSAAQTNSMVTLGCLVKGYFPEPVTVTWNSGSLSSGVHTFPAVLQSDLYTLSSSVTVPSSTWPSETVTCNVAHPASSTKVDKKIVPRDCGCKPCICTVPEVSSVFIFPPKPKDVLTITLTPKVTCVVVDISKDDPEVQFSWFVDDVEVHTAQTQPREEQFNSTFRSVSELPIMHQDWLNGKEFKCRVNSAAFPAPIEKTISKTKGRPKAPQVYTIPPPKEQMAKDKVSLTCMITDFFPEDITVEWQWNGQPAENYKNTQPIMDTDGSYFVYSKLNVQKSNWEAGNTFTCSVLHEGLHNHHTEKSLSHSPG
light: DIQMTQSTSSLSASLGDRVTISCSASQGINNYLNWYQQKPDGTVELLIYYTSTLQSGVPSRFSGSGSGTDYSLTISNLEPEDIGTYYCQQYSKLPRTFGGGTKLEIKRADAAPTVSIFPPSSEQLTSGGASVVCFLNNFYPKDINVKWKIDGSERQNGVLNSWTDQDSKDSTYSMSSTLTLTKDEYERHNSYTCEATHKTSTSPIVKSFNRNEC
B5: AB205-ADL5-D15 (conjugate)
heavy: QVQLQQSGSELMMPGASVKISCKATGYTFSNYWIQRPGHGLEWIGEILPGTGRTIYNEKFKGKATFTADISSNTVQMQLSSLTSEDSAVYYCARRDYYGNFYYAMDYWGQGTSVTVSSAKTTPPSVYPLAPGSAAQTNSMVTLGCLVKGYFPEPVTVTWNSGSLSSGVHTFPAVLQSDLYTLSSSVTVPSSTWPSETVTCNVAHPASSTKVDKKIVPRDCGCKPCICTVPEVSSVFIFPPKPKDVLTITLTPKVTCVVVDISKDDPEVQFSWFVDDVEVHTAQTQPREEQFNSTFRSVSELPIMHQDWLNGKEFKCRVNSAAFPAPIEKTISKTKGRPKAPQVYTIPPPKEQMAKDKVSLTCMITDFFPEDITVEWQWNGQPAENYKNTQPIMDTDGSYFVYSKLNVQKSNWEAGNTFTCSVLHEGLHNHHTEKSLSHSPG
light: DIQMTQSTSSLSASLGDRVTISCSASQGINNYLNWYQQKPDGTVELLIYYTSTLQSGVPSRFSGSGSGTDYSLTISNLEPEDIGTYYCQQYSKLPRTFGGGTKLEIKRADAAPTVSIFPPSSEQLTSGGASVVCFLNNFYPKDINVKWKIDGSERQNGVLNSWTDQDSKDSTYSMSSTLTLTKDEYERHNSYTCEATHKTSTSPIVKSFNRNEC
B6: AB205-ADL5-D19 (conjugate)
heavy: QVQLQQSGSELMMPGASVKISCKATGYTFSNYWIQRPGHGLEWIGEILPGTGRTIYNEKFKGKATFTADISSNTVQMQLSSLTSEDSAVYYCARRDYYGNFYYAMDYWGQGTSVTVSSAKTTPPSVYPLAPGSAAQTNSMVTLGCLVKGYFPEPVTVTWNSGSLSSGVHTFPAVLQSDLYTLSSSVTVPSSTWPSETVTCNVAHPASSTKVDKKIVPRDCGCKPCICTVPEVSSVFIFPPKPKDVLTITLTPKVTCVVVDISKDDPEVQFSWFVDDVEVHTAQTQPREEQFNSTFRSVSELPIMHQDWLNGKEFKCRVNSAAFPAPIEKTISKTKGRPKAPQVYTIPPPKEQMAKDKVSLTCMITDFFPEDITVEWQWNGQPAENYKNTQPIMDTDGSYFVYSKLNVQKSNWEAGNTFTCSVLHEGLHNHHTEKSLSHSPG
light: DIQMTQSTSSLSASLGDRVTISCSASQGINNYLNWYQQKPDGTVELLIYYTSTLQSGVPSRFSGSGSGTDYSLTISNLEPEDIGTYYCQQYSKLPRTFGGGTKLEIKRADAAPTVSIFPPSSEQLTSGGASVVCFLNNFYPKDINVKWKIDGSERQNGVLNSWTDQDSKDSTYSMSSTLTLTKDEYERHNSYTCEATHKTSTSPIVKSFNRNEC
B7: AB205-ADL10-D1 (conjugate)
heavy: QVQLQQSGSELMMPGASVKISCKATGYTFSNYWIQRPGHGLEWIGEILPGTGRTIYNEKFKGKATFTADISSNTVQMQLSSLTSEDSAVYYCARRDYYGNFYYAMDYWGQGTSVTVSSAKTTPPSVYPLAPGSAAQTNSMVTLGCLVKGYFPEPVTVTWNSGSLSSGVHTFPAVLQSDLYTLSSSVTVPSSTWPSETVTCNVAHPASSTKVDKKIVPRDCGCKPCICTVPEVSSVFIFPPKPKDVLTITLTPKVTCVVVDISKDDPEVQFSWFVDDVEVHTAQTQPREEQFNSTFRSVSELPIMHQDWLNGKEFKCRVNSAAFPAPIEKTISKTKGRPKAPQVYTIPPPKEQMAKDKVSLTCMITDFFPEDITVEWQWNGQPAENYKNTQPIMDTDGSYFVYSKLNVQKSNWEAGNTFTCSVLHEGLHNHHTEKSLSHSPG
light: DIQMTQSTSSLSASLGDRVTISCSASQGINNYLNWYQQKPDGTVELLIYYTSTLQSGVPSRFSGSGSGTDYSLTISNLEPEDIGTYYCQQYSKLPRTFGGGTKLEIKRADAAPTVSIFPPSSEQLTSGGASVVCFLNNFYPKDINVKWKIDGSERQNGVLNSWTDQDSKDSTYSMSSTLTLTKDEYERHNSYTCEATHKTSTSPIVKSFNRNEC

System: MOLP8 cells
Test: Cell viability, CD138-expressing MOLP8
Assay type: cell-based
Conditions: anti-CD138 ADC; for GI50: read-out: GI50 (nM) (ADC)
Procedure: HCC1954 (American Type Culture Collection (ATCC)) breast ductal carcinoma cells were plated at 2000 cells/well in flat bottom 96-well tissue culture plates (Corning) in a total volume of 90 μL tissue culture medium supplemented with 10% fetal bovine serum (ThermoFisher Scientific). Cells were treated with a 3-fold serial dilution of compound from 200 nM to 0.03 nM. Each concentration was tested in triplicate. At the time of treatment, a plate of untreated cells was evaluated using CellTiter-Glo®2.0 Luminescent Cell Viability Assay according to the manufacturer's recommendations (Promega; #G9241). CellTiter-Glo® 2.0 reagent was added to the medium, incubated, and assayed on an EnVision Multilabel Reader (PerkinElmer). Values represent time zero (TO). […] Percentage growth inhibition was calculated as: [(T144-T0)/(C-TO)]×100 for concentrations for which T144>/=TO or [(T144-T0)/T0]×100 for concentrations for which T144<TO. The dose response curve plots were generated using Prism 7 (Graphpad) and fit using nonlinear regression analysis and the log(inhibitor) versus response-variable slope (four parameters).

| Molecule | LD50 (nM) (ADC) | Rmin (%) (ADC) | GI50 [nM] |
| --- | --- | --- | --- |
| B1 | >400 | −74.008 | < 0.061 |
| B2 | 0.535 | −99.306 | < 0.061 |
| B3 | 11.669 | −76.736 | < 0.061 |
| B4 | 0.656 | −100.099 | > 0.061 |
| B5 | >400 | 2.419 | 0.268 |
| B6 | >400 | −46.23 | < 0.061 |
| B7 | >400 | −25.099 | 0.08 |
